Test results as given in article PMC4914982.
Blank lines part the entries; values can stand above or below the substance they belong to.

Legend:
Experiment in all cases: SEC + native gel or EMSA; SEC: Superdex S200 10/300 GL, PBS pH 7.4, approximately 500 ul of 1 mg/ml protein injected, UV 280 nm; semi-native PAGE: 12% SDS-PAGE, Laemmli buffer with 0.2% SDS and 12.5 mM EDTA, no beta-mercaptoethanol, samples not heated; monomer to dimer
[1] = biological target: sfGFP-N149Y
[2] = biological target: sfGFP-N149Y/Q204H
[3] = biological target: sfGFP-N149Y/Q204H/I167T
[4] = biological target: sfGFP-N149Y/Q204H/I167T/I188V
[5] = biological target: sfGFP-N149Y/Q204H/I188V
[6] = biological target: sfGFP-Q204H

stoichiometry N [1]: 2
Substance: sfGFP-N149Y

stoichiometry N [2]: 2
Substance: sfGFP-N149Y/Q204H

stoichiometry N [3]: 2
Substance: sfGFP-N149Y/Q204H/I167T

stoichiometry N [4]: 2
Substance: sfGFP-N149Y/Q204H/I167T/I188V

stoichiometry N [5]: 2
Substance: sfGFP-N149Y/Q204H/I188V

stoichiometry N [6]: 2
Substance: sfGFP-Q204H
